Laboratory results: paper PMC11194106

Biological target: Streptococcus pyogenes Cas9 (SpyCas9) (UniProt Q99ZW2)
Assay: SEC co-migration followed by SDS-PAGE, band intensity quantified
Conditions: parent: est. 99; read off a plot

Substance	response [%]
AcrIIA28 from Streptococcus phage Javan 128 H30W	81
AcrIIA28 from Streptococcus phage Javan 128 R41W	96
AcrIIA28 from Streptococcus phage Javan 128 S34W	97
AcrIIA28 from Streptococcus phage Javan 128 K38W	83
AcrIIA28 from Streptococcus phage Javan 128 W45I	3
AcrIIA28 from Streptococcus phage Javan 128 K48D	93
AcrIIA28 from Streptococcus phage Javan 128 S81W	21
AcrIIA28 from Streptococcus phage Javan 128 K7D	41
